B1: HDV Ribozyme (parent)
chain: GGCCGGCAUGGUCCCAGCCUCCUCGCUGGCGCCGGCUGGGCAACAUUCCGAGGGGACCGUCCCCUCGGUAAUGGCGAAUGGGACCCA

Variants of B1 are the subject of this data set. The data set can be described thus: self-cleavage, relative activity (ratio to wild type); higher = more cleavage; co-transcriptional.
Take GGCCGGCAUGGUCCCAGCCUCCUCGCUGGCGCCGGCUGGGCAACAUUCGGAGGGGACCGUCCUCUCGGUAAUGGCGAAUGGGACCCA [C49G C63U]: the self-cleavage worked out at 0.815.

For GGCCGGCAUGGUCCCAGCCUCCUCGCUGGAGCCGGAUGGGCAACAUUCCGAGGGGACCGUCCCCUCGGUAAUGGCGAAUGGGACCCA [C30A C36A], the self-cleavage came out at 0.0361.

Take GGCCGGCAUGUUCCCAGCCUCCUCGCUGGUGCCGGCUGGGCAACAUUCCGAGGGGACCGUCCCCUCGGUAAUGGCGAAUGGGACCCA [G11U C30U]: the self-cleavage is 0.0923.

With GGCCGGCAUGUUCGCAGCCUCCUCGCUGGCGCCGGCUGGGCAACAUUCCGAGGGGACCGUCCCCUCGGUAAUGGCGAAUGGGACCCA [G11U C14G], the self-cleavage was 0.0692.

Take GGCCGGCAUGAUCGCAGCCUCCUCGCUGGCGCCGGCUGGGCAACAUUCCGAGGGGACCGUCCCCUCGGUAAUGGCGAAUGGGACCCA [G11A C14G]: the self-cleavage was found to be 0.0346.

Turning to GGCCGGUAUGGUCCCAGCCUCCUGGCUGGCGCCGGCUGGGCAACAUUCCGAGGGGACCGUCCCCUCGGUAAUGGCGAAUGGGACCCA [C7U C24G], the self-cleavage turned out to be 0.0739.

On to GGCCGGGAUGGUCCCAGCCUCCUCGUUGGCGCCGGCUGGGCAACAUUCCGAGGGGACCGUCCCCUCGGUAAUGGCGAAUGGGACCCA [C7G C26U], for which the self-cleavage came out at 0.356.

Consider GGCCGGCAUGGCCCCAGCCUCCUCGCUGGCGCCGGCUGGGCAACAUUCCGAGGAGACCGUCCCCUCGGUAAUGGCGAAUGGGACCCA [U12C G54A], for which the self-cleavage is 0.862.

On to GGCGGGCAUGGUCCCAGCCUCCUCGCUGGCGCCGGCUGGGCAACAUUCCGAGGGGACCGUCCCCUCGGUAAUGGCGCAUGGGACCCA [C4G A77C], for which the self-cleavage is 0.

In the case of GGCCGGCAUGGUCCCAGCCUCCACGCUGGCGCCGGCUGGGCAACAUUCCGAGGGGACCGUCCCCUCGGUAAUGGCGAAUGGGACCCU [U23A A87U], the self-cleavage is 0.99.

Take GGCCGGCAUUGUCCCAGCCUCCUCGCUGGCGCCGGCUGGGCAACAUUCCGAGGGGACCGUCCCCUCGGUAACGGCGAAUGGGACCCA [G10U U72C]: the self-cleavage is 0.193.

Turning to GGCCGGCAUGGUCCCAGCCUCCUCGCUGGCGCCGGCUGGGCAACAUUCCGAGGAGACCGUCCCCUCGGUAAUGGCGAAUGGGACCCC [G54A A87C], the self-cleavage amounted to 1.06.

With GGCCGGCAUGGUCCCAGCCUCCUCGCUGGCGCCGGCUGGGCAACGUUCCGAGGGGCCCGUCCCCUCGGUAAUGGCGAAUGGGACCCA [A45G A56C], the self-cleavage was 1.3.

For the variant GGCCGGCAUGGUCCCAGCCUCCUCGCUGGCGCCGGCUGGGCAACAUUCCGAGGGGACCGUGCCCUCGGUAAUGGCGUAUGGGACCCA [C61G A77U], the self-cleavage stood at 0.394.

With GGCCGGCAUGGUCCCAGCCUCCUCGCUGGCGCCGGCUAGGCAACAGUCCGAGGGGACCGUCCCCUCGGUAAUGGCGAAUGGGACCCA [G38A U46G], the self-cleavage was determined as 0.111.

For GGCCGGCAUGGUCCCAGCCUCCUCGCUGGCGCCGGCUGGGAAACAUUCCGAGGGGACCGUCCUCUCGGUAAUGGCGAAUGGGACCCA [C41A C63U], the self-cleavage is 1.04.

With GUCCGGCAUGGUCCCAGCCUCCUCGCUGGCGCCAGCUGGGCAACAUUCCGAGGGGACCGUCCCCUCGGUAAUGGCGAAUGGGACCCA [G2U G34A], the self-cleavage came to 0.0671.

As for GGCCGGCAUGGUCCCAGCCUCCUCGCUGGCGCCGGCUGGGCAACUUUCCGAGGAGACCGUCCCCUCGGUAAUGGCGAAUGGGACCCA [A45U G54A], the self-cleavage is 0.939.

Turning to GGCCGGCAAGGUCCCAGCCUCCUCGCUGGCGCCGGCUGGGCAACAUUCCGAGGGGGCCGUCCCCUCGGUAAUGGCGAAUGGGACCCA [U9A A56G], the self-cleavage was determined as 0.95.

Regarding GGCCAGCAUGGUCCCAGCCUCCUCGCUGGCGCCGGCUGGGCAACAUGCCGAGGGGACCGUCCCCUCGGUAAUGGCGAAUGGGACCCA [G5A U47G], the self-cleavage turned out to be 0.0875.

As to GGCCGGCAUGGUCCCAGCCUCCUCGCUGGCGCCGGCUGGGCAAAAUUCCGAGGGGACCGUCCCCUCGGUAAUGGCGAAUGGGACCAA [C44A C86A], the self-cleavage was 1.08.

As to GGCCGGCAUGGUCCCAGCCUCCUCGCUGGCGCCGGCUGGGCAACAUUCCGAGGGGAACGUCCCCUCGGUAAUGGCGAAUGGGACGCA [C57A C85G], the self-cleavage is 0.748.

As for GGCCGGCAUGGUCCCAGCCUCCUCACUGGCGCCGGCUGGGCAACAUUCCGAGGGGACCGUCCCCUCGGAAAUGGCGAAUGGGACCCA [G25A U69A], the self-cleavage was found to be 0.222.

Take GGCCGGUAUGGUCCCAGCCUCCUCGCUGGCGCCGGCUGGGCAACAUUCCGAGGUGACCGUCCCCUCGGUAAUGGCGAAUGGGACCCA [C7U G54U]: the self-cleavage worked out at 1.

As to GGCCGGCAUGGUCCCAGCCUCCUCGCUGGCGCCGGCUGGGCAACAUUCCGGGGGGACCGUCCCCUCGGUGAUGGCGAAUGGGACCCA [A51G A70G], the self-cleavage is 1.16.

Regarding GGCCGGCAUGGUCCCAGCGUCCUCGCUGGCGCCGGCUGGGCAACAUUCUGAGGGGACCGUCCCCUCGGUAAUGGCGAAUGGGACCCA [C19G C49U], the self-cleavage is 0.0326.

As to GGCCGGCAUGGUCCCAGCCUUCUCGCUGGCGCCGGCUGGGCAACAUUCCGAGGGGACCGUCCCCUCGGUAGUGGCGAAUGGGACCCA [C21U A71G], the self-cleavage was 0.243.

On to GGCCGGCAUGGUCCCAGCCUCCUCGCUGGCGCCAGCUGGGCAACAUUCCGCGGGGACCGUCCCCUCGGUAAUGGCGAAUGGGACCCA [G34A A51C], for which the self-cleavage is 0.193.

On to GGCCGGCAUAGUCCCAGCCUCCUCGCUGGCGCCGGCUGGGCAACAUUCCGAGGGGACCGUCCCCUCGGUAAUGGCGAAUGGGACUCA [G10A C85U], for which the self-cleavage was 0.946.

As to GGCCGGCAUGGUCCCAGCCUCCUCGCUGGCGCCGGCUGGGCAACAUUCCGAGGGGACCGUCCCCUCAGUAAUGGCGAAUGGGAACCA [G67A C84A], the self-cleavage amounted to 0.831.

With GGCCGGCAUGGUCCCAGCCUCCUCGCUGGCGCCGGCUGGGCAACAUUCCGAGGGGACCGUCCCCUCAGUAAUGGCGAAUGGGAGCCA [G67A C84G], the self-cleavage amounted to 0.369.

Consider GGCCAGCAUGGUCCCAGCCUACUCGCUGGCGCCGGCUGGGCAACAUUCCGAGGGGACCGUCCCCUCGGUAAUGGCGAAUGGGACCCA [G5A C21A], for which the self-cleavage turned out to be 0.0923.

These data come from the RNAGym collection of RNA variant scans (doi:10.7554/elife.80360).
